# Square brackets hold non-standard residues; d marks the D form. Ends that are not written are not given here. Aib = CC(C)(N)C(=O)O
# T1: human glucose-dependent insulinotropic peptide receptor (human, UniProt P48546)
# T1 sequence: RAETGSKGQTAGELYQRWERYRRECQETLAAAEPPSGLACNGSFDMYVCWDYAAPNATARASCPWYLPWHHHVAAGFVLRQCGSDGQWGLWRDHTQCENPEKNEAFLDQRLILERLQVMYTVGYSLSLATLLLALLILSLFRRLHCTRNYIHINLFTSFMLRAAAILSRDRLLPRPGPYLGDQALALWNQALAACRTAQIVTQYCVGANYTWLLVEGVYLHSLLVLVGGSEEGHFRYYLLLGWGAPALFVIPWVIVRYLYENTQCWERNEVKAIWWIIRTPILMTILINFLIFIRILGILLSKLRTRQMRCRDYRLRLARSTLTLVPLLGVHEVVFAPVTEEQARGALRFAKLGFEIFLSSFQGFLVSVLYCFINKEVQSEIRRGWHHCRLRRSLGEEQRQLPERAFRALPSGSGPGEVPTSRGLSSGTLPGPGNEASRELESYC
# B1: Compound No. 18 (peptide)
# peptide: Y[Aib]EGTFTSDYSIYLE[Aib]IAAQEFVNWLLAGGPSSGAPPPSK-NH2
# modifications: N-terminus assumed
# SMILES: CC[C@H](C)[C@H](NC(=O)[C@H](CO)NC(=O)[C@H](Cc1ccc(O)cc1)NC(=O)[C@H](CC(=O)O)NC(=O)[C@H](CO)NC(=O)[C@@H](NC(=O)[C@H](Cc1ccccc1)NC(=O)[C@@H](NC(=O)CNC(=O)[C@H](CCC(=O)O)NC(=O)C(C)(C)NC(=O)[C@@H](N)Cc1ccc(O)cc1)[C@@H](C)O)[C@@H](C)O)C(=O)N[C@@H](Cc1ccc(O)cc1)C(=O)N[C@@H](CC(C)C)C(=O)N[C@@H](CCC(=O)O)C(=O)NC(C)(C)C(=O)N[C@H](C(=O)N[C@@H](C)C(=O)N[C@@H](C)C(=O)N[C@@H](CCC(N)=O)C(=O)N[C@@H](CCC(=O)O)C(=O)N[C@@H](Cc1ccccc1)C(=O)N[C@H](C(=O)N[C@@H](CC(N)=O)C(=O)N[C@@H](Cc1c[nH]c2ccccc12)C(=O)N[C@@H](CC(C)C)C(=O)N[C@@H](CC(C)C)C(=O)N[C@@H](C)C(=O)NCC(=O)NCC(=O)N1CCC[C@H]1C(=O)N[C@@H](CO)C(=O)N[C@@H](CO)C(=O)NCC(=O)N[C@@H](C)C(=O)N1CCC[C@H]1C(=O)N1CCC[C@H]1C(=O)N1CCC[C@H]1C(=O)N[C@@H](CO)C(=O)N[C@@H](CCCCN)C(N)=O)C(C)C)[C@@H](C)CC
# B2: Compound No. 17 (peptide)
# peptide: Y[Aib]EGTFTSDYSIYLEKEA[Aib]KEFVNWLLAGGPSSGAPPPSK-NH2
# modifications: N-terminus assumed
# SMILES: CC[C@H](C)[C@H](NC(=O)[C@H](CO)NC(=O)[C@H](Cc1ccc(O)cc1)NC(=O)[C@H](CC(=O)O)NC(=O)[C@H](CO)NC(=O)[C@@H](NC(=O)[C@H](Cc1ccccc1)NC(=O)[C@@H](NC(=O)CNC(=O)[C@H](CCC(=O)O)NC(=O)C(C)(C)NC(=O)[C@@H](N)Cc1ccc(O)cc1)[C@@H](C)O)[C@@H](C)O)C(=O)N[C@@H](Cc1ccc(O)cc1)C(=O)N[C@@H](CC(C)C)C(=O)N[C@@H](CCC(=O)O)C(=O)N[C@@H](CCCCN)C(=O)N[C@@H](CCC(=O)O)C(=O)N[C@@H](C)C(=O)NC(C)(C)C(=O)N[C@@H](CCCCN)C(=O)N[C@@H](CCC(=O)O)C(=O)N[C@@H](Cc1ccccc1)C(=O)N[C@H](C(=O)N[C@@H](CC(N)=O)C(=O)N[C@@H](Cc1c[nH]c2ccccc12)C(=O)N[C@@H](CC(C)C)C(=O)N[C@@H](CC(C)C)C(=O)N[C@@H](C)C(=O)NCC(=O)NCC(=O)N1CCC[C@H]1C(=O)N[C@@H](CO)C(=O)N[C@@H](CO)C(=O)NCC(=O)N[C@@H](C)C(=O)N1CCC[C@H]1C(=O)N1CCC[C@H]1C(=O)N1CCC[C@H]1C(=O)N[C@@H](CO)C(=O)N[C@@H](CCCCN)C(N)=O)C(C)C
# B3: Compound No. 20 (peptide)
# peptide: Y[Aib]EGTFTSDYSIYLDKIAAQEFVNWLLAGGPSSGAPPPSK-NH2
# modifications: N-terminus assumed
# SMILES: CC[C@H](C)[C@H](NC(=O)[C@H](CCCCN)NC(=O)[C@H](CC(=O)O)NC(=O)[C@H](CC(C)C)NC(=O)[C@H](Cc1ccc(O)cc1)NC(=O)[C@@H](NC(=O)[C@H](CO)NC(=O)[C@H](Cc1ccc(O)cc1)NC(=O)[C@H](CC(=O)O)NC(=O)[C@H](CO)NC(=O)[C@@H](NC(=O)[C@H](Cc1ccccc1)NC(=O)[C@@H](NC(=O)CNC(=O)[C@H](CCC(=O)O)NC(=O)C(C)(C)NC(=O)[C@@H](N)Cc1ccc(O)cc1)[C@@H](C)O)[C@@H](C)O)[C@@H](C)CC)C(=O)N[C@@H](C)C(=O)N[C@@H](C)C(=O)N[C@@H](CCC(N)=O)C(=O)N[C@@H](CCC(=O)O)C(=O)N[C@@H](Cc1ccccc1)C(=O)N[C@H](C(=O)N[C@@H](CC(N)=O)C(=O)N[C@@H](Cc1c[nH]c2ccccc12)C(=O)N[C@@H](CC(C)C)C(=O)N[C@@H](CC(C)C)C(=O)N[C@@H](C)C(=O)NCC(=O)NCC(=O)N1CCC[C@H]1C(=O)N[C@@H](CO)C(=O)N[C@@H](CO)C(=O)NCC(=O)N[C@@H](C)C(=O)N1CCC[C@H]1C(=O)N1CCC[C@H]1C(=O)N1CCC[C@H]1C(=O)N[C@@H](CO)C(=O)N[C@@H](CCCCN)C(N)=O)C(C)C
# B4: Compound No. 16 (peptide)
# peptide: Y[Aib]EGTFTSDYSIYLEKE[Aib]AKEFVNWLLAGGPSSGAPPPSK-NH2
# modifications: N-terminus assumed
# SMILES: CC[C@H](C)[C@H](NC(=O)[C@H](CO)NC(=O)[C@H](Cc1ccc(O)cc1)NC(=O)[C@H](CC(=O)O)NC(=O)[C@H](CO)NC(=O)[C@@H](NC(=O)[C@H](Cc1ccccc1)NC(=O)[C@@H](NC(=O)CNC(=O)[C@H](CCC(=O)O)NC(=O)C(C)(C)NC(=O)[C@@H](N)Cc1ccc(O)cc1)[C@@H](C)O)[C@@H](C)O)C(=O)N[C@@H](Cc1ccc(O)cc1)C(=O)N[C@@H](CC(C)C)C(=O)N[C@@H](CCC(=O)O)C(=O)N[C@@H](CCCCN)C(=O)N[C@@H](CCC(=O)O)C(=O)NC(C)(C)C(=O)N[C@@H](C)C(=O)N[C@@H](CCCCN)C(=O)N[C@@H](CCC(=O)O)C(=O)N[C@@H](Cc1ccccc1)C(=O)N[C@H](C(=O)N[C@@H](CC(N)=O)C(=O)N[C@@H](Cc1c[nH]c2ccccc12)C(=O)N[C@@H](CC(C)C)C(=O)N[C@@H](CC(C)C)C(=O)N[C@@H](C)C(=O)NCC(=O)NCC(=O)N1CCC[C@H]1C(=O)N[C@@H](CO)C(=O)N[C@@H](CO)C(=O)NCC(=O)N[C@@H](C)C(=O)N1CCC[C@H]1C(=O)N1CCC[C@H]1C(=O)N1CCC[C@H]1C(=O)N[C@@H](CO)C(=O)N[C@@H](CCCCN)C(N)=O)C(C)C
# B5: Compound No. 19 (peptide)
# peptide: Y[Aib]EGTFTSDYSIYLDKEAAKEFVNWLLAGGPSSGAPPPSK-NH2
# modifications: N-terminus assumed
# SMILES: CC[C@H](C)[C@H](NC(=O)[C@H](CO)NC(=O)[C@H](Cc1ccc(O)cc1)NC(=O)[C@H](CC(=O)O)NC(=O)[C@H](CO)NC(=O)[C@@H](NC(=O)[C@H](Cc1ccccc1)NC(=O)[C@@H](NC(=O)CNC(=O)[C@H](CCC(=O)O)NC(=O)C(C)(C)NC(=O)[C@@H](N)Cc1ccc(O)cc1)[C@@H](C)O)[C@@H](C)O)C(=O)N[C@@H](Cc1ccc(O)cc1)C(=O)N[C@@H](CC(C)C)C(=O)N[C@@H](CC(=O)O)C(=O)N[C@@H](CCCCN)C(=O)N[C@@H](CCC(=O)O)C(=O)N[C@@H](C)C(=O)N[C@@H](C)C(=O)N[C@@H](CCCCN)C(=O)N[C@@H](CCC(=O)O)C(=O)N[C@@H](Cc1ccccc1)C(=O)N[C@H](C(=O)N[C@@H](CC(N)=O)C(=O)N[C@@H](Cc1c[nH]c2ccccc12)C(=O)N[C@@H](CC(C)C)C(=O)N[C@@H](CC(C)C)C(=O)N[C@@H](C)C(=O)NCC(=O)NCC(=O)N1CCC[C@H]1C(=O)N[C@@H](CO)C(=O)N[C@@H](CO)C(=O)NCC(=O)N[C@@H](C)C(=O)N1CCC[C@H]1C(=O)N1CCC[C@H]1C(=O)N1CCC[C@H]1C(=O)N[C@@H](CO)C(=O)N[C@@H](CCCCN)C(N)=O)C(C)C
# B6: Compound No. 15 (peptide)
# peptide: Y[Aib]EGTFTSDYSIYLEKIAQKEFVNWLLAGGPSSGAPPPSK-NH2
# modifications: N-terminus assumed
# SMILES: CC[C@H](C)[C@H](NC(=O)[C@H](CCCCN)NC(=O)[C@H](CCC(=O)O)NC(=O)[C@H](CC(C)C)NC(=O)[C@H](Cc1ccc(O)cc1)NC(=O)[C@@H](NC(=O)[C@H](CO)NC(=O)[C@H](Cc1ccc(O)cc1)NC(=O)[C@H](CC(=O)O)NC(=O)[C@H](CO)NC(=O)[C@@H](NC(=O)[C@H](Cc1ccccc1)NC(=O)[C@@H](NC(=O)CNC(=O)[C@H](CCC(=O)O)NC(=O)C(C)(C)NC(=O)[C@@H](N)Cc1ccc(O)cc1)[C@@H](C)O)[C@@H](C)O)[C@@H](C)CC)C(=O)N[C@@H](C)C(=O)N[C@@H](CCC(N)=O)C(=O)N[C@@H](CCCCN)C(=O)N[C@@H](CCC(=O)O)C(=O)N[C@@H](Cc1ccccc1)C(=O)N[C@H](C(=O)N[C@@H](CC(N)=O)C(=O)N[C@@H](Cc1c[nH]c2ccccc12)C(=O)N[C@@H](CC(C)C)C(=O)N[C@@H](CC(C)C)C(=O)N[C@@H](C)C(=O)NCC(=O)NCC(=O)N1CCC[C@H]1C(=O)N[C@@H](CO)C(=O)N[C@@H](CO)C(=O)NCC(=O)N[C@@H](C)C(=O)N1CCC[C@H]1C(=O)N1CCC[C@H]1C(=O)N1CCC[C@H]1C(=O)N[C@@H](CO)C(=O)N[C@@H](CCCCN)C(N)=O)C(C)C
# Target: human glucagon-like peptide-1 receptor (human, UniProt P43220)
# Assay: cell-based or functional assay
row,Binder,"Activity for human GLP-1R (EC50 nM), cAMP HTRF [nM]"
1,B1,0.022
2,B2,0.01
3,B3,0.027
4,B4,0.007
5,B5,0.024
6,B6,0.015

# Target: T1, human glucose-dependent insulinotropic …
# Assay: cell-based or functional assay
row,Binder,"Activity for human GIPR (EC50 nM), cAMP HTRF [nM]"
1,B1,0.012
2,B2,0.057
3,B3,0.008
4,B4,0.018
5,B5,0.02
6,B6,0.009
